Test results: the supplement of paper PMC9170038

Test system: MS2 coat protein
Test: apparent KD of MS2 coat protein; higher = weaker reporter binding
Settings: Eterna round: R107
Protocol: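 RNA-MaP round R107: designed RNA switches with theophylline, tryptophan, arginine or FMN aptamers are transcribed on-chip within common flanks. They are titrated with SNAP-549-labelled MS2 coat protein in RNA-MaP buffer (100 mM Tris pH 7.5, 80 mM KCl, 4 mM MgCl2), without ligand or with the indicated ligand. Median apparent KD per design.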

[1] = input ligand: theophylline 20 uM
[2] = input ligand: theophylline 2 mM
[3] = input ligand: tryptophan 2.4 mM

Sequence	apparent KD of MS2 coat protein (input ligand: arginine 13.2 mM)	apparent KD of MS2 coat protein (input ligand: none)	apparent KD of MS2 coat protein [1]	apparent KD of MS2 coat protein [2]	apparent KD of MS2 coat protein [3]
ACACAUGACAGAAGGAGCGGAAUGAACACACAUGAGGAUCACCCAUGUUUUUUUUGUGUUUUCCAGGUAGGUCGCUGACAUGAGG [#20 Same State - Arginine B]	11.2 nM	8.99 nM	20.7 nM	9.54 nM	8.95 nM
ACACAUGAGGAUCACCCAUGUGCGCUGGAAGGAGCGCAGAAUCAUGCAGGUAGGUCGCCAGUGCCCAUUACUAGAGGGAUAAGAG [Onriri]	44.5 nM	75.8 nM	101 nM	102 nM	64.6 nM
ACACAUGAGGAUCACCCAUGUGCGCUGGAAGGAGCGCAGAAUCAUGCAGGUAGGUCGCCAGUGCCCUUCGAUAAAGGGAAAAGAG [Erbienes]	42.4 nM	97.4 nM	72 nM	106 nM	69.1 nM
ACACAUGAGGAUCACCCAUGUGCGCUGGAAGGAGCGCAGAAUCAUGCAGGUAGGUCGCCAGUGCCCUUUGAUAAAGGGAAAAGAG [Reor]	52.2 nM	43.3 nM	99.7 nM	76.9 nM	64.3 nM
ACAUGAAGAACAGCGGUGGGCGCGCUCGAUACCAGUACUUUGAAAUACCCUUGGCAGCGACAUGAGGAUCACCCAUGUGAGAUGA [XTheo A #3]	13 nM	16.6 nM	25.6 nM	49.5 nM	15.7 nM
ACAUGAAGAACAGCGGUGGGCGCGCUCGAUACCAGUAUUUUAACCUACCCUUGGCAGCGACAUGAGGAUCACCCAUGUGAGAUGA [XTheo A #7]	18.5 nM		26.8 nM		16.6 nM
ACAUGAAGAUUAAUCGUGGGCAUACUCGAUACCAGUAUUUUAACCUACCCUUGGCAGCGACAUGAGGAUCACCCAUGUGAGAUGA [XTheo A #8]	19.9 nM		23.5 nM		22.8 nM
ACAUGAGACAUGGAUACCAGCGACAUGAGGAUCACCCAUGUAUGAGGAUCACCCAUGUUAUGCCCUUGGCAGCCACAAACAUGAG [.PLMULLINP]	19.8 nM	13.9 nM	30.8 nM	147 nM	15.2 nM
ACAUGAGCAUCAGCCUUGUAGGAACUAGAUACCAGCCCAACAUGAGGCCCUUGGCAGCUGACAACAUGAGGAUCACCCAUGUCAC [Exclusion - Theophylline A #1]	20.1 nM		36.3 nM		38.4 nM
ACAUGAGGAUCACCCAUGUAAUGGCACGAUACCAGCUGAUCCCGUGGCCCUUGGCAGCGUCCGGUGUGGUCCGCCGGGUUGGACC [HHHMULLIN]	59 nM	26 nM	49.1 nM	31.1 nM	36.2 nM
ACAUGAGGAUCACCCAUGUAAUUAACAGAAGGAGCGUGAUGGAUCACAGGUAGGUCGCUGUACUUAGAAAUAACUCUCAUGAAUA [JR_Nu_SSArginiA_Sub024]	15.2 nM	18.2 nM	27.6 nM	16.6 nM	17.1 nM
ACAUGAGGAUCACCCAUGUACAUGACGGAAGGAGCGUGCAAAAGCACAGGUAGGUCGCCGAUCUACAUAUUGGGUAUUAUAUUUU [#29 Exclusion - Arginine A]	15.4 nM	19.4 nM	35.7 nM	28.3 nM	24.2 nM
ACAUGAGGAUCACCCAUGUAUGACUAUCCUCGAGGACCGGUACGGCCGCCACUCGAACGAGUGGCUCGCGAGUGCGCACUCGCGG [5'end-1]	12.4 nM	11.4 nM	15.6 nM	12.9 nM	11.6 nM
ACAUGAGGAUCACCCAUGUAUUACCGGGAAGGAGCGGCCGGAAGGCCAGGUAGGUCGCUCGGCGUCGUGCUGUAAAGCACGACGA [#1 Same State - Arginine A Attempt #27 (HarryS)]	8.95 nM	14 nM	18.4 nM	12.2 nM	11.6 nM
ACAUGAGGAUCACCCAUGUCAGGGCACGAUACCAGCUGAUCCGAUGGCCCUUGGCAGCGUUACGUGUGGUCAUGAGGAUCACCCG [pjbmullin]	55.5 nM	59.3 nM	101 nM	76.8 nM	64.7 nM
ACAUGAGGAUCACCCAUGUCUGCCACUGAUACCAGCGGAAGCCAACGCCCUUGGCAGCAGAACAUGAGGAUCACCCAUGUAGGCA [Same State Theophylline A GF26]	52.8 nM		180 nM		256 nM
ACAUGAGGAUCACCCAUGUGAAGGCACGAUACCAGCUGAUCCCGUGGCCCUUGGCAGCGUCCGGUUUGGUCCGGCGGAUGGGACG [vvamullin]	13.1 nM	18.8 nM	33.6 nM	21.9 nM	23 nM
